Here are results for four molecules from US20230365675A1 (published 2023).

Assay [1] addresses Biotinylated CD33 protein (UniProt P20138). As to the kind of experiment: Octet competition on biotinylated CD33; competitor 429.
The target of assay [2] is T1, Mutant CD33-GFP M7 (R98D) on 293FT cells (UniProt P20138 18-364).
T1 construct: whole, on cells; not shown: GFP fused to CD33
As to the kind of experiment: FACS, mutant CD33-GFP on 293FT cells.

The target in assay [3] is T2, Mutant CD33-GFP M8 (K52A) on 293FT cells (UniProt P20138 18-364).
T2 construct: whole, on cells; not shown: GFP fused to CD33
Put plainly: FACS, mutant CD33-GFP on 293FT cells. (In general: In flow cytometry, cells or beads pass a laser one at a time.)

The target of assay [4] is T3, Mutant CD33-GFP M6 (F43N) on 293FT cells (UniProt P20138 18-364).
T3 construct: whole, on cells; not shown: GFP fused to CD33
As to the kind of experiment: FACS, mutant CD33-GFP on 293FT cells.

For assay [5], the target named is Biotinylated CD33 protein (UniProt P20138). As to the kind of experiment: Octet competition on biotinylated CD33; competitor 413. A general note: In BLI a coated tip is dipped into the sample, and binding shifts an interference pattern.
Assay [6] has the same target. Put plainly: Octet competition on biotinylated CD33; competitor h195.
For assay [7] the target is unchanged. Put plainly: Octet competition on biotinylated CD33; competitor 353.
In assay [8] the target is Mutant CD33-GFP M10 (Y127A) on 293FT cells (UniProt P20138). As to the kind of experiment: FACS, mutant CD33-GFP on 293FT cells.
In assay [9] the target is Mutant CD33-GFP JS24 (Q24E) on 293FT cells (UniProt P20138). Put plainly: FACS, mutant CD33-GFP on 293FT cells.
In assay [10] the target is Mutant CD33-GFP M11 (L78T) on 293FT cells (UniProt P20138). As to the kind of experiment: FACS, mutant CD33-GFP on 293FT cells.
For assay [11], the target named is Mutant CD33-GFP M16 (4889AII) on 293FT cells (UniProt P20138). Put plainly: FACS, mutant CD33-GFP on 293FT cells.
The target in assay [12] is Mutant CD33-GFP M4 (R122D) on 293FT cells (UniProt P20138). Put plainly: FACS, mutant CD33-GFP on 293FT cells.
Assay [13] concerns the target Mutant CD33-GFP M18 (353AAL) on 293FT cells (UniProt P20138). As to the kind of experiment: FACS, mutant CD33-GFP on 293FT cells.
The target in assay [14] is Mutant CD33-GFP M17 (F21Y) on 293FT cells (UniProt P20138). As to the kind of experiment: FACS, mutant CD33-GFP on 293FT cells.
Assay [15] addresses Mutant CD33-GFP N20D on 293FT cells (UniProt P20138). As to the kind of experiment: FACS, mutant CD33-GFP on 293FT cells.
The target of assay [16] is Mutant CD33-GFP JS23 (L23N) on 293FT cells (UniProt P20138). As to the kind of experiment: FACS, mutant CD33-GFP on 293FT cells.
Assay [17] concerns the target Mutant CD33-GFP M15 (Q171A) on 293FT cells (UniProt P20138). As to the kind of experiment: FACS, mutant CD33-GFP on 293FT cells.
Assay [18] has as its target Mutant CD33-GFP M9 (Y49, 50A) on 293FT cells (UniProt P20138). As to the kind of experiment: FACS, mutant CD33-GFP on 293FT cells.
Assay [19] concerns the target Mutant CD33-GFP M14 (E170R) on 293FT cells (UniProt P20138). Put plainly: FACS, mutant CD33-GFP on 293FT cells.
Assay [20] deals with Mutant CD33-GFP JS25 (V25M) on 293FT cells (UniProt P20138). As to the kind of experiment: FACS, mutant CD33-GFP on 293FT cells.
Assay [21] addresses Mutant CD33-GFP JS28 (S28L) on 293FT cells (UniProt P20138). As to the kind of experiment: FACS, mutant CD33-GFP on 293FT cells.
Assay [22] deals with Mutant CD33-GFP M5 (AEAD), quadruple mutant, on 293FT cells (UniProt P20138). As to the kind of experiment: FACS, mutant CD33-GFP on 293FT cells.
The target of assay [23] is Mutant CD33-GFP M19 (348ATAI) on 293FT cells (UniProt P20138). As to the kind of experiment: FACS, mutant CD33-GFP on 293FT cells.
The target in assay [24] is Mutant CD33-GFP M13 (R91E) on 293FT cells (UniProt P20138). As to the kind of experiment: FACS, mutant CD33-GFP on 293FT cells.
The target of assay [25] is Mutant CD33-GFP M12 (G88S) on 293FT cells (UniProt P20138). As to the kind of experiment: FACS, mutant CD33-GFP on 293FT cells.
Assay [26] has as its target Biotinylated CD33 protein (UniProt P20138). As to the kind of experiment: Octet competition on biotinylated CD33; competitor 416.
Assay [27] deals with CD33-GFP fusion protein, wild type (WT), on 293FT cells (UniProt P20138). As to the kind of experiment: FACS, WT CD33-GFP on 293FT cells.
Assay [28] has as its target Biotinylated CD33 protein (UniProt P20138). Put plainly: Octet competition on biotinylated CD33; competitor 389.
For assay [29] the target is unchanged. Put plainly: Octet competition on biotinylated CD33; competitor 424.
In assay [30] the target is T4, Mutant CD33-GFP M3 (N99A) on 293FT cells (UniProt P20138 18-364).
T4 construct: whole, on cells; not shown: GFP fused to CD33
As to the kind of experiment: FACS, mutant CD33-GFP on 293FT cells.

Assay [31] concerns the target T5, Mutant CD33-GFP M2 (H45E) on 293FT cells (UniProt P20138 18-364).
T5 construct: whole, on cells; not shown: GFP fused to CD33
Put plainly: FACS, mutant CD33-GFP on 293FT cells.

Assay [32] concerns the target T6, Mutant CD33-GFP M1 (W22A) on 293FT cells (UniProt P20138 18-364).
T6 construct: whole, on cells; not shown: GFP fused to CD33
As to the kind of experiment: FACS, mutant CD33-GFP on 293FT cells.

Assay [33] concerns the target Biotinylated CD33 protein (UniProt P20138). As to the kind of experiment: Octet competition on biotinylated CD33; competitor 426.
For assay [34] the target is unchanged. As to the kind of experiment: Octet competition on biotinylated CD33; competitor 430.
Assay [35] has the same target. As to the kind of experiment: Octet competition on biotinylated CD33; competitor 420.
The next assay has as its target CD33 on MOLM-13 cells (human, UniProt P20138 18-364). As to the kind of experiment: cell-based or functional assay.

Chain of CD33 on MOLM-13 cells (P20138 18-364): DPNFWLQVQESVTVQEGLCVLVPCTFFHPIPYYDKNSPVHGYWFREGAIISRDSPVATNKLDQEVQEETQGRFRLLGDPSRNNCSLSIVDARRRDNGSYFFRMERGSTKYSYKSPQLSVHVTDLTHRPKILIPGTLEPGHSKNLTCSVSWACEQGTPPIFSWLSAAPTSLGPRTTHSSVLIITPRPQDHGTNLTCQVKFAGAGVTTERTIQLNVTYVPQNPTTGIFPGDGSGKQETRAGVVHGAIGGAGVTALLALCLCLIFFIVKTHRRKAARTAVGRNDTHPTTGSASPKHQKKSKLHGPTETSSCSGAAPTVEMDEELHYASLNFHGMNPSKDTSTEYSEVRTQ
Chain of Biotinylated CD33 protein (P20138 18-259 limits assumed): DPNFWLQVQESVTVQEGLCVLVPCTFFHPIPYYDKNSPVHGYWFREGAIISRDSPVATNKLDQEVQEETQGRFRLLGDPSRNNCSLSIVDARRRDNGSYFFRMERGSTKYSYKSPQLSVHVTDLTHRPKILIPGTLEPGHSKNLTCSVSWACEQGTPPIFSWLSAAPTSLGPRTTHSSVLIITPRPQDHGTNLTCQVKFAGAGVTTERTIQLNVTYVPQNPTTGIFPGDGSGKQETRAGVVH
Chain of Mutant CD33-GFP N20D on 293FT cells (P20138 18-364 N20D): as the sequence (P20138 18-364) above, with N3D counted along it
Chain of CD33-GFP fusion protein, wild type (WT), on 293FT cells (P20138 18-364): as the sequence (P20138 18-364) above
Chain of Mutant CD33-GFP M14 (E170R) on 293FT cells (P20138 18-364 E170R): as the sequence (P20138 18-364) above, with E153R counted along it
Chain of Mutant CD33-GFP JS25 (V25M) on 293FT cells (P20138 18-364 V25M): as the sequence (P20138 18-364) above, with V8M counted along it
T5 sequence (P20138 18-364 H45E): as the sequence (P20138 18-364) above, with H28E counted along it
Chain of Mutant CD33-GFP M11 (L78T) on 293FT cells (P20138 18-364 L78T): as the sequence (P20138 18-364) above, with L61T counted along it
Chain of Mutant CD33-GFP M9 (Y49, 50A) on 293FT cells (P20138 other isoform, or with tags, fused parts or gaps mutant): as the sequence (P20138 18-364) above, with Y32A, Y33A counted along it
Chain of Mutant CD33-GFP M13 (R91E) on 293FT cells (P20138 18-364 R91E): as the sequence (P20138 18-364) above, with R74E counted along it
Chain of Mutant CD33-GFP M15 (Q171A) on 293FT cells (P20138 18-364 Q171A): as the sequence (P20138 18-364) above, with Q154A counted along it
Chain of Mutant CD33-GFP JS23 (L23N) on 293FT cells (P20138 18-364 L23N): as the sequence (P20138 18-364) above, with L6N counted along it
T4 sequence (P20138 18-364 N99A): as the sequence (P20138 18-364) above, with N82A counted along it
Chain of Mutant CD33-GFP M17 (F21Y) on 293FT cells (P20138 18-364 F21Y): as the sequence (P20138 18-364) above, with F4Y counted along it
T2 sequence (P20138 18-364 K52A): as the sequence (P20138 18-364) above, with K35A counted along it
Chain of Mutant CD33-GFP M12 (G88S) on 293FT cells (P20138 18-364 G88S): as the sequence (P20138 18-364) above, with G71S counted along it
Chain of Mutant CD33-GFP M5 (AEAD), quadruple mutant, on 293FT cells (P20138 other isoform, or with tags, fused parts or gaps mutant): as the sequence (P20138 18-364) above, with W5A, H28E, N82A, R105D counted along it
T1 sequence (P20138 18-364 R98D): as the sequence (P20138 18-364) above, with R81D counted along it
T3 sequence (P20138 18-364 F43N): as the sequence (P20138 18-364) above, with F26N counted along it
Chain of Mutant CD33-GFP JS28 (S28L) on 293FT cells (P20138 18-364 S28L): as the sequence (P20138 18-364) above, with S11L counted along it
T6 sequence (P20138 18-364 W22A): as the sequence (P20138 18-364) above, with W5A counted along it
Chain of Mutant CD33-GFP M4 (R122D) on 293FT cells (P20138 18-364 R122D): as the sequence (P20138 18-364) above, with R105D counted along it
Chain of Mutant CD33-GFP JS24 (Q24E) on 293FT cells (P20138 18-364 Q24E): as the sequence (P20138 18-364) above, with Q7E counted along it
Chain of Mutant CD33-GFP M10 (Y127A) on 293FT cells (P20138 18-364 Y127A): as the sequence (P20138 18-364) above, with Y110A counted along it

B1: sdCD33_2 (VHH)
VHH: QVQLVQPGGSLRLFCVASEEFFSIYAMGWYRQAPGKQHEMVARFTRDGKITYADSAKGRFTITRDAKNTLNLQMNGLIPEDTAVYYCNINHYWGQGTQVTVSS
As to B1, the Octet signal in assay [1] was found to be 0.0422; in assay [5] it was 0.623; in assay [6], 0.799; in assay [7], 0.322; in assay [26] it was 0.0635; in assay [28], 0.584. The Octet signal in assay [29] turned out to be 0.0143; in assay [33], 0.158; in assay [34], 0.651; in [35], 0.381. Besides, the FACS binding data stood at 0.48 in assay [2]; 91.2 in assay [3]; 95.3 in assay [4]; 98.5 in [8]; 98.8 in assay [9]; 33.4 in assay [10]. Moreover, the FACS binding data came to 98.4 in assay [11]; 1.43 in assay [12]; 97.3 in assay [13]; 98.9 in assay [14]; 98.9 in assay [15]; 95.4 in assay [16]. Besides, the FACS binding data in assay [17] is 98.7; in assay [18], 0.39; in assay [19], 98.2; in [20], 99.3; in assay [21], 99.5; in [22], 0.41. Moreover, the FACS binding data was found to be 99 in assay [23]; 98.6 in assay [24]; 98.2 in [25]; 98.3 in [27]; 81.9 in [30]; 2.54 in [31]. The FACS binding data in [32] amounted to 8.08.

B2: Anti-CD33-CAR5 (other)
chain: QVKLEESGGGSVQAGESLRLSCTASGITFRDYDIDWYRQAPGKEREWLATITPSGTTHYPDSVKGRATISRDSAKNTVYLQMNSLKPEDTARYECNTLAYWGSGTQVTVSSAAATTTPAPRPPTPAPTIASQPLSLRPEACRPAAGGAVHTRGLDFACDIYIWAPLAGTCGVLLLSLVITLYCKRGRKKLLYIFKQPFMRPVQTTQEEDGCSCRFPEEEEGGCELRVKFSRSADAPAYQQGQNQLYNELNLGRREEYDVLDKRRGRDPEMGGKPRRKNPQEGLYNELQKDKMAEAYSEIGMKGERRRGKGHDGLYQGLSTATKDTYDALHMQALPPR
With B2, in the assay with CD33 on MOLM-13 cells, the Ratio came to 8.5 and the “Testing FP2 Expression (CD33+)” value is 28.2 % of constitutive-fluorescence-positive cells.

B3: Anti-CD33 CAR 7 (other)
chain: MELGLSWVVLAALLQGVQAQVQLVQPGGSLRLFCVASEEFFSIYAMGWYRQAPGKQHEMVARFTRDGKITYADSAKGRFTITRDAKNTLNLQMNGLIPEDTAVYYCNINHYWGQGTQVTVSSAAATTTPAPRPPTPAPTIASQPLSLRPEACRPAAGGAVHTRGLDFACDIYIWAPLAGTCGVLLLSLVITLYCKRGRKKLLYIFKQPFMRPVQTTQEEDGCSCRFPEEEEGGCELRVKFSRSADAPAYQQGQNQLYNELNLGRREEYDVLDKRRGRDPEMGGKPRRKNPQEGLYNELQKDKMAEAYSEIGMKGERRRGKGHDGLYQGLSTATKDTYDALHMQALPPR
As for B3, in the assay with CD33 on MOLM-13 cells, the Ratio was found to be 1.98 and the “Testing FP2 Expression (CD33+)” value is 17.6 % of constitutive-fluorescence-positive cells.

B4: Anti-CD33 CAR 6 (other)
chain: QVQLVETGGGLVRAGGSLRLSCAASGRTADIYNIGWFRQAPGKEREFVAAITWIGRTPYYADAVKGRFAFSTDSAKNTVSLQMDNLKPEDTGVYYCNAAHYLEGNTDYYWGQGTQVTVSSAAATTTPAPRPPTPAPTIASQPLSLRPEACRPAAGGAVHTRGLDFACDIYIWAPLAGTCGVLLLSLVITLYCKRGRKKLLYIFKQPFMRPVQTTQEEDGCSCRFPEEEEGGCELRVKFSRSADAPAYQQGQNQLYNELNLGRREEYDVLDKRRGRDPEMGGKPRRKNPQEGLYNELQKDKMAEAYSEIGMKGERRRGKGHDGLYQGLSTATKDTYDALHMQALPPR
As for B4, in the assay with CD33 on MOLM-13 cells, the Ratio is 3.6 and the “Testing FP2 Expression (CD33+)” value was 22.9 % of constitutive-fluorescence-positive cells.
